# Measurements from patent US20200369775A1 (Dana-Farber, published 2020).
# T1: IL-2 receptor β subunit chain (UniProt P14784 27-551)
# T1 construct: whole, on cells; also called β chain; IL-2R β
# T1 sequence (looked up): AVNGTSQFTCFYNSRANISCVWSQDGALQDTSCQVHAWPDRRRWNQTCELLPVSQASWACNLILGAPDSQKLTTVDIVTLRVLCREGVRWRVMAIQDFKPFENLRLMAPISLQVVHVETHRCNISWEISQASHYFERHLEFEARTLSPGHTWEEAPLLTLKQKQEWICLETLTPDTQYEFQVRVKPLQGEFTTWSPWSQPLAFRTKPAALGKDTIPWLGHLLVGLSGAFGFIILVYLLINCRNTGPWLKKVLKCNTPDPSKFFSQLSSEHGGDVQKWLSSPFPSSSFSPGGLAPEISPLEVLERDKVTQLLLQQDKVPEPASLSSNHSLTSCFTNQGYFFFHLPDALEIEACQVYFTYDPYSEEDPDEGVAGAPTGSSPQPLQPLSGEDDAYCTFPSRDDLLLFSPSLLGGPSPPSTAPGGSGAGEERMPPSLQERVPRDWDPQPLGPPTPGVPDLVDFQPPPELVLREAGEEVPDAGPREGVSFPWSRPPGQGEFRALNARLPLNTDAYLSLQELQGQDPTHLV
# T2: IL-2 receptor γ subunit chain (UniProt P31785 23-369)
# T2 construct: whole, on cells; also called γ chain; IL-2R γ
# T2 sequence (looked up): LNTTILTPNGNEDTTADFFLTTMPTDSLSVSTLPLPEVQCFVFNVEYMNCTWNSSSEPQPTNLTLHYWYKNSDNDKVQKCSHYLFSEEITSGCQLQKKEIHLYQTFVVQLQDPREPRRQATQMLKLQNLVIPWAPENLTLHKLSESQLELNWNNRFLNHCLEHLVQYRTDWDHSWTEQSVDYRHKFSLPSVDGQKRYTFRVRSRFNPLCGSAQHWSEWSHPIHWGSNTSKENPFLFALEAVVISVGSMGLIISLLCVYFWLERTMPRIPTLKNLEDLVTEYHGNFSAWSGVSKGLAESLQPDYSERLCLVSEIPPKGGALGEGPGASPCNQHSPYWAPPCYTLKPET
# T3: IL-2 receptor (IL-2R) complex of α, β and γ chains (UniProt P01589 22-272; P14784 27-551; P31785 23-369)
# T3 construct: whole, on cells; co-expressed on transiently transfected 293T cells in the control experiment; also called IL-2Rs; the complex
# T3 sequence (looked up) 1: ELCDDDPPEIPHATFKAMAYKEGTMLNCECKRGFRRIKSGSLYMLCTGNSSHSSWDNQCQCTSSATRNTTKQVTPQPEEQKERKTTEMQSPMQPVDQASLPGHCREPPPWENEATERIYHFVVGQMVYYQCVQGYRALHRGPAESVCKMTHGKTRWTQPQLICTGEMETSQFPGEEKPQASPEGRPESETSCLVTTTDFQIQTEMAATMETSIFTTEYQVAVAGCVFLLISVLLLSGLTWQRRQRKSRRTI
# T3 sequence (looked up) 2: T1 sequence (looked up)
# T3 sequence (looked up) 3: T2 sequence (looked up)
# T4: CD25 (TAC), the α chain of IL-2 receptor (UniProt P01589 22-272, limits assumed)
# T4 construct: whole, on cells; also called IL-2Rα; α subunit chain
# T4 sequence (looked up): T3 sequence (looked up) 1
# T5: CC chemokine receptor 4 (CCR4) (human, UniProt P51679 1-360)
# T5 construct: whole, on cells; Endogenous CCR4 on human T cell subsets and Mac-1 cells
# T5 sequence (looked up): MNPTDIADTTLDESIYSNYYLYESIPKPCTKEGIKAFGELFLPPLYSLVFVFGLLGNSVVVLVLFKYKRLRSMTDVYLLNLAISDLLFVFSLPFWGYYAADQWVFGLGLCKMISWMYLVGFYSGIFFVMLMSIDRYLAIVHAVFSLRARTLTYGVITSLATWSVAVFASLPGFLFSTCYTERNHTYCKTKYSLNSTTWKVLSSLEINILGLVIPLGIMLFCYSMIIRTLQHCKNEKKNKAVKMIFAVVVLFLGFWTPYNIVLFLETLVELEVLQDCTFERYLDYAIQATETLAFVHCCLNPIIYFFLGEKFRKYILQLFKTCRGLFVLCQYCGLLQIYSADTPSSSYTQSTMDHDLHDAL
# B1: mAb2-3 (isotype not stated for the experiment) (antibody, V domains shown)
# VH: QVQLVQSGAEVKKPGASVKVSCKASGYTFASAWMHWMRQAPGQGLEWIGWINPGNVNTKYNEKFKGRATLTVDTSTNTAYMELSSLRSEDTAVYYCARSTYYRPLDYWGQGTLVTVSS
# VL: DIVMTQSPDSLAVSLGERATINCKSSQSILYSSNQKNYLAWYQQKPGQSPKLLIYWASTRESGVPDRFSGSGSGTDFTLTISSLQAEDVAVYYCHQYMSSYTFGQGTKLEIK
# Key:
# [1] = biological target: T1, IL-2 receptor β subunit chain; assay: transiently transfected 293T cells, control experiment
# [2] = biological target: T2, IL-2 receptor γ subunit chain; assay: as above
# [3] = biological target: T3, IL-2 receptor (IL-2R) complex of α, β …; assay: as above
# [4] = biological target: T4, CD25 (TAC), the α chain of IL-2 receptor; assay: as above
# [5] = biological target: T5, CC chemokine receptor 4 (CCR4); assay: depletion of CCR4+ tumor-primed T cells with antibody-conjugated beads, checked by flow cytometry
# Procedure: FIG. 4. The activity of tumor-primed T cells on IGROV-1 cells. (A) Tumor-primed T cells were stained by anti-CD3, CD4, CD8, CD25 and (B) CCR4 antibodies. CCR4-depleted tumor-primed T cells by mAb2-3-conjugated beads and T cell subsets in tumor-primed T cells were analyzed by flow cytometry. (C) Tumor-primed T cells and mAb2-3-depleted tumor-primed T cells were incubated with IGROV-1 cells for 24 and 48 hours and then the supernatant were harvested and detected the expression level of IFN-γ. […] (D) Intracellular IFN-γ staining of CD4 and CD8 T cells from coculture. Cells were harvested at 48 hours post-coculture; incubated for 6 h in the presence of brefeldin A; stained for CD3, CD4, and CD8; fixed in paraformaldehyde; permeabilized; and stained for intracellular IFN-γ. The cells were gated on lymphocytes by size and CD markers and analyzed by flow cytometry. (E) The cytotoxic activities of tumor-primed T cells and mAb2-3-depleted tumor primed T cells were further detected by LDH ELISA assay. All experiments represented triplicates in each time point with the means±S.D. and performed in two independent experiments. *, **, and *** represents student's t-test p value<0.05, 0.01, and 0.005, respectively.
# To establish an OvCA xenograft bearing humanized mouse model, IGROV-1-specific T cells in vitro were created that could be tested subsequently for in vivo immunotherapy. […]
binder,measurement,setting,value
B1,binding result,[1],no binding
same,binding result,[2],no binding
same,binding result,[3],no binding
same,binding result,[4],no binding
same,binding result,[5],binds
